For six substances, in vitro biopotency: inhibition of ACTH secretion (times the Standard) results are on record in US5777073.

The target of assay [1] is CRF receptors on rat anterior pituitary cells (rat).
The target is the same in assay [2]. This is another data set of the same source.
For assay [3] the target is unchanged. The source holds these as a separate data set.
For assay [4] the target is unchanged. The source holds these as a separate data set.
Assay [5] shares this target. The source holds these as a separate data set.
The target is the same in assay [6]. The source holds these as a separate data set.

Read-outs that look alike come from different tables or passages of the source.

With “(cyclo 28-31) D-Phe^12, Nle^21,38, Glu^28, Lys^31 !-r/hCRF(12-41) (peptide)”, the in vitro biopotency: inhibition of ACTH secretion (times the Standard) in assay [1] is 3.12. In the case of “(cyclo 29-33) D-Phe^12, Nle^21,38, Glu^29, Lys^33 -r/hCRF(12-41) (peptide)”, the in vitro biopotency: inhibition of ACTH secretion (times the Standard) in assay [2] amounted to 7.15. For the substance “(cyclo 28-32) D-Phe^12, Nle^21,38, Glu^28, D-Gln^30, Lys^32 !-r/hCRF(12-41) (peptide)”, the in vitro biopotency: inhibition of ACTH secretion (times the Standard) in assay [3] stood at 3.69. Regarding “(cyclo 29-32) D-Phe^12, Nle^21,38, Glu^29, Lys^32 -r/hCRF(12-41) (peptide)”, the in vitro biopotency: inhibition of ACTH secretion (times the Standard) in assay [4] is 3.38. “(cyclo 28-32) D-Phe^12, Nle^21,38, Glu^28, D-Ala^31, Lys^32 !-r/hCRF(12-41) (peptide)”: the in vitro biopotency: inhibition of ACTH secretion (times the Standard) in assay [5] was 4.91.

For the substance “(cyclo 28-32) D-Phe^12, Nle^21,38, Glu^28, Lys^32 !-r/hCRF(12-41) (peptide)”, the in vitro biopotency: inhibition of ACTH secretion (times the Standard) in assay [6] amounted to 7.3.
